For test [1], the target named is Rim4-FLAG (S. cerevisiae) (UniProt P38741). Put plainly: mass photometry.
A further test deals with T1, recombinant Rim4-6×His (S. cerevisiae, UniProt P38741 1-713).
T1 sequence (looked up): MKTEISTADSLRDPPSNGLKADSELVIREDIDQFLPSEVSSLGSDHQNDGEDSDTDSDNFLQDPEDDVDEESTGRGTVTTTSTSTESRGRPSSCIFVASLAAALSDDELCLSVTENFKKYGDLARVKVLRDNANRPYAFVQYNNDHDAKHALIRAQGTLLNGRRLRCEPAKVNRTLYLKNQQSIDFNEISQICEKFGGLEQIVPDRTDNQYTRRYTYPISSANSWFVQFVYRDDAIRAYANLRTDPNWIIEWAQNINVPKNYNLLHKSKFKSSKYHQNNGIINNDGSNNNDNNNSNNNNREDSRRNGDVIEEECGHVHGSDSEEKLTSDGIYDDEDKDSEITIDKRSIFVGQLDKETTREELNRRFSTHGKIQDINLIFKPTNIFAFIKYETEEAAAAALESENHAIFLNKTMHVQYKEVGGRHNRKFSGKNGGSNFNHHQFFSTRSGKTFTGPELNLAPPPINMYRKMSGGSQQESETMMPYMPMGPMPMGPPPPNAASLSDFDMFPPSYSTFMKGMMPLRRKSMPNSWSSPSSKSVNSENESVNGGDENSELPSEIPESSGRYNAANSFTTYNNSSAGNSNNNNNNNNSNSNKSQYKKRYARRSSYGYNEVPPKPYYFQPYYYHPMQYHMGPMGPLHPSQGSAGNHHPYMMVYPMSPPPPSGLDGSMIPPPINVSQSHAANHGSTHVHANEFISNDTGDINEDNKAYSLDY
Put plainly: pull-down.

The next test concerns the target T2, recombinant Rim4-EGFP (S. cerevisiae, UniProt P38741 1-713).
T2 sequence (looked up): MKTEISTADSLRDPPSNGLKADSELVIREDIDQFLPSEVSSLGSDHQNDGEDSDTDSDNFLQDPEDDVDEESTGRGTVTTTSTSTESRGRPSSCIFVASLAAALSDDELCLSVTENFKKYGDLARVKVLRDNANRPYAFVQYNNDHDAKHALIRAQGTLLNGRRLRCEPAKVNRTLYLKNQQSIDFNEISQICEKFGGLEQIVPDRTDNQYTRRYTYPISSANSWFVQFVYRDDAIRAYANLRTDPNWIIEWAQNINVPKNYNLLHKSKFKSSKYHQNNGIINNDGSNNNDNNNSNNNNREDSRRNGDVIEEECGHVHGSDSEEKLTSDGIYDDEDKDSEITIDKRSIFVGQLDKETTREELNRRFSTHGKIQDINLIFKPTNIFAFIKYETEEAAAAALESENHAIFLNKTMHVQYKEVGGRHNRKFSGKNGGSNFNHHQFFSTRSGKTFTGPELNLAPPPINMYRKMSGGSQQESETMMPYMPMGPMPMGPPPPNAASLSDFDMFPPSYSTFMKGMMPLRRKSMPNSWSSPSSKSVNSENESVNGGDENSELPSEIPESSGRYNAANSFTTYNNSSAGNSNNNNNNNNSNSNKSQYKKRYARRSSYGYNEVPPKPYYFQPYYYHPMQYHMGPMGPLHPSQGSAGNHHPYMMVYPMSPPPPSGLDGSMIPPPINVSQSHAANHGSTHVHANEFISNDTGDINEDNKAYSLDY
The experiment in a line: pull-down.

In the next test the target is T3, Bmh2 (S. cerevisiae (endogenous in meiotic …, UniProt P34730 1-273)).
T3 sequence (looked up): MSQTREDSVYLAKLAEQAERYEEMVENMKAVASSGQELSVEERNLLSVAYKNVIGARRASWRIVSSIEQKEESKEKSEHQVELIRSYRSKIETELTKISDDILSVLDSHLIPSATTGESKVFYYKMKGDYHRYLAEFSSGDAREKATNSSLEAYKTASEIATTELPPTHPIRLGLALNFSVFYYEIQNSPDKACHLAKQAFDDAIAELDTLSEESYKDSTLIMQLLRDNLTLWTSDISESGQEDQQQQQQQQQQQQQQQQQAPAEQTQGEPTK
The experiment in a line: mass photometry.

The values that follow come from doi:10.1101/2022.12.22.521673 (bioRxiv, 2022).

A word on the stoichiometry N: it is the number of molecules, sites or subunits per partner or assembly.

The molecule “Bmh2 (from UniProt P34730 1-273) (natural protein)” came in with a stoichiometry N in test [1] of 1.

B1: recombinant Cdc14-FLAG (enzyme, S. cerevisiae, UniProt Q00684 1-551, looked up)
chain: MRRSVYLDNTIEFLRGRVYLGAYDYTPEDTDELVFFTVEDAIFYNSFHLDFGPMNIGHLYRFAVIFHEILNDPENANKAVVFYSSASTRQRANAACMLCCYMILVQAWTPHQVLQPLAQVDPPFMPFRDAGYSNADFEITIQDVVYGVWRAKEKGLIDLHSFNLESYEKYEHVEFGDFNVLTPDFIAFASPQEDHPKGYLATKSSHLNQPFKSVLNFFANNNVQLVVRLNSHLYNKKHFEDIGIQHLDLIFEDGTCPDLSIVKNFVGAAETIIKRGGKIAVHCKAGLGRTGCLIGAHLIYTYGFTANECIGFLRFIRPGMVVGPQQHWLYLHQNDFREWKYTTRISLKPSEAIGGLYPLISLEEYRLQKKKLKDDKRVAQNNIEGELRDLTMTPPSNGHGALSARNSSQPSTANNGSNSFKSSAVPQTSPGQPRKGQNGSNTIEDINNNRNPTSHANRKVVIESNNSDDESMQDTNGTSNHYPKVSRKKNDISSASSSRMEDNEPSATNINNAADDTILRQLLPKNRRVTSGRRTTSAAGGIRKISGSIKK
With B1, the binding result in the test with recombinant Rim4-6×His and with recombinant Rim4-EGFP was “binds” each time.

B2: Bmh1 (natural protein, UniProt P29311 1-267, looked up)
chain: MSTSREDSVYLAKLAEQAERYEEMVENMKTVASSGQELSVEERNLLSVAYKNVIGARRASWRIVSSIEQKEESKEKSEHQVELICSYRSKIETELTKISDDILSVLDSHLIPSATTGESKVFYYKMKGDYHRYLAEFSSGDAREKATNASLEAYKTASEIATTELPPTHPIRLGLALNFSVFYYEIQNSPDKACHLAKQAFDDAIAELDTLSEESYKDSTLIMQLLRDNLTLWTSDMSESGQAEDQQQQQQHQQQQPPAAAEGEAPK
Take B2: the stoichiometry N (in test [1]; with Bmh2) was 1 in each case.
